Consider 25 molecules from ChEMBL document CHEMBL1811779, “Adenosine deaminase-like protein 1 (ADAL1): characterization and substrate specificity in the hydrolysis of N(6)- or O(6)-substituted purine or 2-aminopurine nucleoside monophosphates” (J Med Chem, 2011).

The source made the active and inactive calls. No cut-off for these calls is given here.

Series [1] deals with T1, N6-Methyl-AMP deaminase (Homo sapiens) (UniProt Q6DHV7).
T1 sequence (whole entry): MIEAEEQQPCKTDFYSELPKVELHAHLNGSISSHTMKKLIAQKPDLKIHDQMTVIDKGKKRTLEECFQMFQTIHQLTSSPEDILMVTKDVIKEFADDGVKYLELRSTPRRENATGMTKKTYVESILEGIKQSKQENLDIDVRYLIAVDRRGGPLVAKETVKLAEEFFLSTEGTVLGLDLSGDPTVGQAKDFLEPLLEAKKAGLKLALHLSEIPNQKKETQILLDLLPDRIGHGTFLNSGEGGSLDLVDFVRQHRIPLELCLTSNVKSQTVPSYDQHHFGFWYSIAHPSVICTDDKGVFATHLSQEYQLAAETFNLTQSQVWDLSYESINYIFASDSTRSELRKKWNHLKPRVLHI
The experiment in a line: (§1) Activity of recombinant human ADAL1 expressed in Escherichia coli by UV-spectrophotometry.

Substrate in series [2]: Nc1ncnc2c1ncn2[C@@H]1O[C@H](COP(=O)(O)O)[C@@H](O)[C@H]1O
Described as §1.

Substrate in series [3]: Nc1nc(Cl)c2ncn([C@@H]3O[C@H](COP(=O)(O)O)[C@@H](O)[C@H]3O)c2n1
The description is as §1.

Substrate in series [4]: CCOc1nc(N)nc2c1ncn2[C@@H]1O[C@H](COP(=O)(O)O)[C@@H](O)[C@@]1(C)F
The series is described as §1.

Substrate in series [5]: O=P(O)(O)OC[C@H]1O[C@@H](n2cnc3c(NC4CCCC4)ncnc32)[C@H](O)[C@@H]1O
The description is as §1.

Substrate in series [6]: COc1nc(N)nc2c1ncn2[C@@H]1O[C@H](COP(=O)(O)O)[C@@H](O)[C@@]1(C)F
The description is as §1.

Substrate in series [7]: COc1nc(N)nc2c1ncn2[C@@H]1O[C@H](COP(=O)(O)O)[C@@H](O)[C@@]1(C)O
The series is described as §1.

Substrate in series [8]: CC(C)Oc1nc(N)nc2c1ncn2[C@@H]1O[C@H](COP(=O)(O)O)[C@@H](O)[C@@]1(C)F
Described as §1.

Substrate in series [9]: COc1nc(N)nc2c1ncn2[C@H]1C[C@H](O)[C@@H](COP(=O)(O)O)O1
Described as §1.

Substrate in series [10]: COc1nc(N)nc2c1ncn2[C@@H]1O[C@H](COP(=O)(O)O)[C@@H](O)[C@H]1O
Described as §1.

Substrate in series [11]: CNc1ncnc2c1ncn2[C@@H]1O[C@H](COP(=O)(O)O)[C@@H](O)[C@H]1O
The series is described as §1.

Substrate in series [12]: Nc1nc(NC2CC2)c2ncn([C@H]3C=C[C@@H](COP(=O)(O)O)C3)c2n1
The series is described as §1.

Substrate in series [13]: C[C@@]1(F)[C@H](O)[C@@H](COP(=O)(O)O)O[C@H]1n1cnc2c(N3CCC3)nc(N)nc21
The series is described as §1.

Substrate in series [14]: Nc1ncnc2c1ncn2[C@@H]1O[C@H](COP(=O)(O)O)[C@@H](O)[C@H]1O
The series is described as follows: (§2) Kcat/Km ratio of recombinant human ADAL1 expressed in Escherichia coli.

Substrate in series [15]: Nc1nc(Cl)c2ncn([C@@H]3O[C@H](COP(=O)(O)O)[C@@H](O)[C@H]3O)c2n1
The series is described as §2.

Substrate in series [16]: CCOc1nc(N)nc2c1ncn2[C@@H]1O[C@H](COP(=O)(O)O)[C@@H](O)[C@@]1(C)F
Described as §2.

Substrate in series [17]: O=P(O)(O)OC[C@H]1O[C@@H](n2cnc3c(NC4CCCC4)ncnc32)[C@H](O)[C@@H]1O
The series is described as §2.

Substrate in series [18]: COc1nc(N)nc2c1ncn2[C@@H]1O[C@H](COP(=O)(O)O)[C@@H](O)[C@@]1(C)F
The description is as §2.

Substrate in series [19]: COc1nc(N)nc2c1ncn2[C@@H]1O[C@H](COP(=O)(O)O)[C@@H](O)[C@@]1(C)O
The series is described as §2.

Substrate in series [20]: CC(C)Oc1nc(N)nc2c1ncn2[C@@H]1O[C@H](COP(=O)(O)O)[C@@H](O)[C@@]1(C)F
Described as §2.

Substrate in series [21]: COc1nc(N)nc2c1ncn2[C@H]1C[C@H](O)[C@@H](COP(=O)(O)O)O1
The description is as §2.

Substrate in series [22]: COc1nc(N)nc2c1ncn2[C@@H]1O[C@H](COP(=O)(O)O)[C@@H](O)[C@H]1O
Described as §2.

Substrate in series [23]: CNc1ncnc2c1ncn2[C@@H]1O[C@H](COP(=O)(O)O)[C@@H](O)[C@H]1O
The description is as §2.

Substrate in series [24]: Nc1nc(NC2CC2)c2ncn([C@H]3C=C[C@@H](COP(=O)(O)O)C3)c2n1
The series is described as §2.

Substrate in series [25]: C[C@@]1(F)[C@H](O)[C@@H](COP(=O)(O)O)O[C@H]1n1cnc2c(N3CCC3)nc(N)nc21
The description is as §2.

With `COc1nc(N)nc2c1ncn2[C@@H]1O[C@H](COP(=O)(N[C@@H](C)C(=O)OC(C)C)Oc2ccccc2)[C@@H](O)[C@@]1(C)F` (stereo not given in full), in series [1], the result was inactive.
For the molecule `Nc1ncnc2c1ncn2[C@@H]1O[C@H](COP(N)(=O)O)[C@@H](O)[C@H]1O`, in series [1], the outcome was inactive.
For `Nc1ncnc2c1ncn2[C@@H]1O[C@H](CO)[C@@H](O)[C@H]1O`, the result in series [1] was inactive.
The same measure, in the same setting: under `Nc1ncnc2c1ncn2CCOCP(=O)(O)O` stands “inactive”; under `CN1N=C(N)c2cn([C@@H]3O[C@H](COP(=O)(O)O)[C@@H](O)[C@H]3O)c3ncnc1c23`, “inactive”; under `Nc1nc(=S)c2ncn([C@@H]3O[C@H](COP(=O)(O)O)[C@@H](O)[C@H]3O)c2[nH]1`, “inactive”.
On the same count and under the same terms, then `Nc1nc(N)c2ncn([C@@H]3O[C@H](CO)[C@@H](O)[C@H]3O)c2n1`, with “inactive”.
For the molecule `CCOc1nc(N)nc2c1ncn2[C@@H]1O[C@H](CO)[C@@H](O)[C@@]1(C)F`, the outcome in series [1] was inactive.
On the same count and under the same terms, under `CCOc1nc(N)nc2c1ncn2[C@@H]1O[C@@H]2COP(=O)(O)O[C@H]2[C@@]1(C)F` stands “inactive”; under `COc1nc(N)nc2c1ncn2[C@@H]1O[C@H](COP(=O)(O)N[C@@H](C)C(=O)O)[C@@H](O)[C@@]1(C)F`, “inactive”.
Same read-out and setting: under `COc1nc(N)nc2c1ncn2[C@@H]1O[C@H](COP(=O)(O)OP(=O)(O)O)[C@@H](O)[C@@]1(C)F` stands “inactive”; under `CCOc1nc(N)nc2c1ncn2[C@@H]1O[C@@H]2CO[P@](=O)(OC(C)C)O[C@H]2[C@@]1(C)F`, “inactive”.
`Nc1nc(=O)[nH]c2c1ncn2[C@@H]1O[C@H](CO)[C@@H](O)[C@H]1O`: the result in [1] was inactive.
The same measure, in the same setting: under `CCOc1nc(N)nc2c1ncn2[C@@H]1O[C@H](COP(=O)(O)OP(=O)(O)OP(=O)(O)O)[C@@H](O)[C@@]1(C)F` stands “inactive”; under `Nc1ccn([C@H]2C[C@H](O)[C@@H](COP(=O)(O)O)O2)c(=O)n1`, “inactive”; under `CNc1ncnc2c1ncn2[C@@H]1O[C@H](CO)[C@@H](O)[C@H]1O`, “inactive”.
Still for that read-out and setting: under `Nc1nc(NC2CC2)c2ncn([C@H]3C=C[C@@H](CO)C3)c2n1` stands “inactive”; under `C[C@H](Cn1cnc2c(N)ncnc21)OCP(=O)(O)O`, “inactive”.
Same read-out and setting: under `C[C@@]1(F)[C@H](O)[C@@H](COP(=O)(O)O)O[C@H]1n1ccc(N)nc1=O` stands “inactive”; under `COc1nc(N)nc2c1ncn2[C@@H]1O[C@H](CO)[C@@H](O)[C@H]1O`, “inactive”.
Consider `COc1nc(N)nc2c1ncn2[C@@H]1O[C@H](CO)[C@@H](O)[C@@]1(C)F`, for which the result in series [1] was inactive.
With `O=C(O)CC(Nc1ncnc2c1ncn2[C@@H]1O[C@H](COP(=O)(O)O)[C@@H](O)[C@H]1O)C(=O)O` (stereo not given in full), in [1], the result was inactive.
On the same count and under the same terms, then `CSc1nc(N)nc2c1ncn2[C@@H]1O[C@H](COP(=O)(O)O)[C@@H](O)[C@H]1O`, with “inactive”; and `O=P(O)(O)OC[C@H]1O[C@@H](n2cnc3c2ncn2ccnc32)[C@H](O)[C@@H]1O`, with “inactive”.

B1: N6-Methyl-AMP deaminase (Homo sapiens), Q6DHV7 (protein)
chain: MIEAEEQQPCKTDFYSELPKVELHAHLNGSISSHTMKKLIAQKPDLKIHDQMTVIDKGKKRTLEECFQMFQTIHQLTSSPEDILMVTKDVIKEFADDGVKYLELRSTPRRENATGMTKKTYVESILEGIKQSKQENLDIDVRYLIAVDRRGGPLVAKETVKLAEEFFLSTEGTVLGLDLSGDPTVGQAKDFLEPLLEAKKAGLKLALHLSEIPNQKKETQILLDLLPDRIGHGTFLNSGEGGSLDLVDFVRQHRIPLELCLTSNVKSQTVPSYDQHHFGFWYSIAHPSVICTDDKGVFATHLSQEYQLAAETFNLTQSQVWDLSYESINYIFASDSTRSELRKKWNHLKPRVLHI
In general, Km refers to the concentration of substrate that gives half-maximal velocity. The kcat is the number of substrate molecules converted per active site and unit of time at saturation. As usually defined, the kcat/Km is the second-order rate constant that governs catalysis at low substrate concentration. As to B1, the Michaelis constant (Km) was 32.8 µM in series [2]; 16.3 µM in series [3]; 25.1 µM in series [4]; 14.3 µM in [5]; 8.96 µM in series [6]; 10.7 µM in [7]. Also, the Km in series [8] was 25.9 µM; in [9], 6 µM; in series [10], 5.2 µM; in [11], 12.5 µM; in [12], 7.37 µM; in series [13], 8.63 µM. The kcat in series [2] was 0.055 s⁻¹; in series [3], 3.64 s⁻¹; in [4], 8.14 s⁻¹; in [5] it was 4.24 s⁻¹; in [6] it was 5.85 s⁻¹; in series [7] it was 2.36 s⁻¹. Further, the kcat in series [8] amounted to 7.2 s⁻¹; in series [9], 2.92 s⁻¹; in [10] it was 2.33 s⁻¹; in [11], 1.58 s⁻¹; in series [12], 1.63 s⁻¹; in [13] it was 1.55 s⁻¹. The kcat/Km was 1700 M⁻¹ s⁻¹ in series [14]; 223000 M⁻¹ s⁻¹ in series [15]; 320000 M⁻¹ s⁻¹ in series [16]; 300000 M⁻¹ s⁻¹ in series [17]; 650000 M⁻¹ s⁻¹ in series [18]; 220000 M⁻¹ s⁻¹ in series [19]. Further, the kcat/Km in [20] amounted to 280000 M⁻¹ s⁻¹; in series [21], 490000 M⁻¹ s⁻¹; in [22], 450000 M⁻¹ s⁻¹; in [23], 130000 M⁻¹ s⁻¹; in [24] it was 220000 M⁻¹ s⁻¹; in series [25] it was 180000 M⁻¹ s⁻¹.
